Data on 41 sequences can be found in the nanobody polyreactivity screen of Harvey et al. (2022).

The nature of this series: yeast display, Sf9 membrane polyspecificity reagent, FACS + sequencing; frameworks hold sequencing errors. An outline of the steps: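 Nanobodies from a synthetic yeast display library (Saccharomyces cerevisiae BJ5465), induced 36–48 hours with galactose, were stained 1 hour at 4 °C with 10% biotinylated, detergent-solubilized Sf9 membrane reagent, enriched on streptavidin microbeads, then FACS-sorted. Anti-HA (expression) and streptavidin (reagent binding) fluorescence set low and high (top ~1%) gates. Polyreactivity labels come from the gate of origin. Genes were colony-PCR amplified, MiSeq 2 × 250 sequenced and filtered by CDR length.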
For the sequence “QVQLVESGGGLVQAGGSLRLSCAASGSTFAYYTMGWYRQAPGKERELVAAISASGGSTYYADSVKGRFTISRDFAKNTVYFQMNSLKPEDTAVYYCNAESYLTGWWVDYWGQGTQVTVSS”, the “polyreactivity (PSR sort gate)” value is given as “low polyreactivity”.
The entry for “QVQLVESGGGLVQAGGSLRLSCAASGSTFAYYTMGWYRQAPGKERELVAAITSAGRTSYADSVKGRFTISRDNAKNTVYLQMKSLKPDDTAVYYCAKGRKPGYYYWGQGTQVTVSS” is “high polyreactivity”; for “QVQLVESGGGLVQAGGSLRLSCAASGSTFCFNDMGWYIQAPGKEREFVAAISSIGGSTYYADSVKGRFKISRDNAKNTLYLQMNSLKPEDTAVYYCAVEVVRVYRYDYWGQGTQVTVSS” it is “low polyreactivity”; for “QVQLVESGGGLVQAGGSLRLSCAASGSTFCHYAMGWYRQAPGKERELVAAISWSGGSTSYADSVKGRFTISRDNAKNTVFLQMNSLIPEDTAVYYCNKRQEWFHFPYTRGYYWGQGTQVSVSS” it is “low polyreactivity”.
The entry for “QVQLVESGGGLVQAGGSLRLSCAASGSTFCRNAMGWYRQAPGKEREFVAVISISSGTTYADSVKGRFTISRDNAKNTVYLQMNSMKPEDTAVYYCAAAIGVYYIDYRYLGTVEYWGQGTQGTVSS” is “low polyreactivity”.
Regarding “QVQLVESGGGLVQAGGSLRLSCAASGSTFCSYVMGWYRQAPGKERELVAAISSIGGSTYYADSVKGRFTISRDNAKNTVYLQMNSLKPEDTAVYYCAAEPPGSPYEGGYWGQGTQVTVSS”, the “polyreactivity (PSR sort gate)” value is on record as “low polyreactivity”.
“QVQLVESGGGLVQAGGSLRLSCAASGSTFCYYAMGWYRQAPGKERELLAAITRSGGRTYYADSVKGRFTISRDNAKNTVYLQMNSLKPEDTAGYYCAADSRVGFGRLYGYWGQGTQVTVSS”: the “polyreactivity (PSR sort gate)” value is “high polyreactivity”.
Turning to “QVQLVESGGGLVQAGGSLRLSCAASGSTFDENAMGWYRQAPGKERELVAVISDSGGSTYYADSVKGRFTISRDYAKNTVYFQMNSLKPEDTAVYYCAKDVPPEYPTSSYDYWGQGSQVTVSS”, the “polyreactivity (PSR sort gate)” value is listed as “low polyreactivity”.
Consider “QVQLVESGGGLVQAGGSLRLSCAASGSTFDFNAMGWSRQAPGKERELVAAITYSGGSTYYADSVKGRFTISRDNAKNTVYLKMNSLKPEDTAVYYCAAEDVYPGSIDMDYWGQGTQVTVSS”, for which the “polyreactivity (PSR sort gate)” value is given as “low polyreactivity”.
On to “QVQLVESGGGLVQAGGSLRLSCAASGSTFDFYAMGLYRQAPGKERELVAAITSGGTTNYADSVKGRFTISRDNAKNTVYLQMNSLKPEDTAVYFCNAYYLGWYRVRAVTGYDYCGQGTQVTVSS”, for which the “polyreactivity (PSR sort gate)” value is “low polyreactivity”.
With “QVQLVESGGGLVQAGGSLRLSCAASGSTFDFYAMGWYRQAPGKERELVAAISWSAGSTYYADSVKGRFTISRDIAKNTVYLQMNSLKPEDTAVYYCNADYWGQGTQVTVSS” the entry was “low polyreactivity”.
With “QVQLVESGGGLVQAGGSLRLSCAASGSTFDGNAMGWYRQAPGKERELVAAITWRDGSTSYADSVKGRFTISRDNAKNTVYLQMNSLKPEDTAVYYCAADYEVYQVASAFDYWGQGTQVTVSS” the entry was “low polyreactivity”.
With “QVQLVESGGGLVQAGGSLRLSCAASGSTFDGYAMGWYRQAPGKERELVAAISRSGGRTYYADSVKGRFTISRDNAKNTVYLQMNSLKPEDTAVYYCAALYPYKREDYWGQGTQVTVSS” the entry was “high polyreactivity”; with “QVQLVESGGGLVQAGGSLRLSCAASGSTFDGYAMGWYRQAPGKERELVAAISSSGAYTYYADSVKGRFTISRDIAKNTVFLQMNSLKPEDTAVYYCNRVTYQQKNDYCGQGTQVTVSS”, “high polyreactivity”; with “QVQLVESGGGLVQAGGSLRLSCAASGSTFDGYTMGWYRQAPGKERELVAGISWSGTSTYYADSVKGRFTISRDNAKNTVYLQMNSLKPEDTAVYYCAADRYWFRLYTAGVTHRFGYWGQGTQVTVSS”, “low polyreactivity”.
Consider “QVQLVESGGGLVQAGGSLRLSCAASGSTFDINTMGWYRQAPGKEREFVAAITDSDDSTYYADSVKGRFTISRDNAKNTVYLQMNSLKPEDTAVYYCAHDYDGYVWDTEYDYWGQGTQVTVSS”, for which the “polyreactivity (PSR sort gate)” value is “low polyreactivity”.
As for “QVQLVESGGGLVQAGGSLRLSCAASGSTFDINTMGWYRQAPGKEREFVAAITDSDDSTYYADSVKGRFTISRDNAKNTVYLQMNSLKPEDTAVYYCNYDYWGQGTQVTVSS”, the “polyreactivity (PSR sort gate)” value was “low polyreactivity”.
Regarding “QVQLVESGGGLVQAGGSLRLSCAASGSTFDKYPLGWYRQAPGKERELVAAITWGGGSTYYADSVKGRFTISRDNAKNTVYLQMNSLKPEDTAVYYCAAEQGSSVLYDSWGQGTQVTVSS”, the “polyreactivity (PSR sort gate)” value was “low polyreactivity”.
The entry for “QVQLVESGGGLVQAGGSLRLSCAASGSTFDKYTMGWYRQAPGKERELVATISRSGTSTNYADSVKGRFTISRDNAKNTVYLQLNSLKPEDTAVYYCAAVMRWRDLFSEYYYWGQGTQVTVSS” is “high polyreactivity”; for “QVQLVESGGGLVQAGGSLRLSCAASGSTFDLNAMGWYRQAPGKERELVARISSVGSTNYADSVKGRFTISRDNAKNTVYLQMNSLKPEDTAVYYCNAGFWDLYDYWGQGTQVTVSS” it is “low polyreactivity”; for “QVQLVESGGGLVQAGGSLRLSCAASGSTFDLNAMGWYRQAPGKERELVARITSSTGRTFYADSVKGRFTISRDNAKNTVYLQMNSLKPEDTAVYYCNTVGHGYSPPVNRSKMDYWGQGTQVTVSS” it is “low polyreactivity”.
For the sequence “QVQLVESGGGLVQAGGSLRLSCAASGSTFDNYAMGWYRQAPGKERELVAVITQSGGITFYADSVKGRFTISRDNAKNTVYLQMNSLKPEDTAVYYCNVELDRSWYYYWGQGTQVTVSS”, the “polyreactivity (PSR sort gate)” value is reported as “low polyreactivity”.
As for “QVQLVESGGGLVQAGGSLRLSCAASGSTFDPNAMGWYRQAPAKERELVAAISYTGGRTYYADSVKGRFTISRDNAKNTVYLQMNSLKPEDTAVYYCAVLVVGSTTQDEPYFSGVEHDYWGQGTQVTVSS”, the “polyreactivity (PSR sort gate)” value is reported as “low polyreactivity”.
With “QVQLVESGGGLVQAGGSLRLSCAASGSTFDPNVMGWYRQAPGKERELVAAITWSGGSTSYADSVKGRFTISRDNAKNTVYLQMNSLKPEDTAVYYCAADWHSWRWGYYYWGQGTQVTVSS” the entry was “low polyreactivity”; with “QVQLVESGGGLVQAGGSLRLSCAASGSTFDPNVMGWYRQAPGNERELVADITTTGVSTYYADSVKGRFTISRDNAKNTVYLQMNSLKPEDTAVYYCNAKLYWYLTRDAYRYRYTYDYWGQGTQVTVSS”, “low polyreactivity”.
Turning to “QVQLVESGGGLVQAGGSLRLSCAASGSTFDQYAMGWYRQAPGKERELVAAISWSGGRTSYAVSVKGRFTISRDTAKNTVYLQMNSLKPEDTAVYYCAADLWFWGFHYPSRMDYWGQGTQVTVSS”, the “polyreactivity (PSR sort gate)” value is “high polyreactivity”.
The entry for “QVQLVESGGGLVQAGGSLRLSCAASGSTFDRNAMGWYRQAPWKERELVATINSDDSKNYADSVKGRFTISRDNAKNTVYLQMNSLKPEDTAVYYCAARLYVTPILSYVERYTNDYWGQGTQVTVSS” is “low polyreactivity”.
Consider “QVQLVESGGGLVQAGGSLRLSCAASGSTFDRNVMGWNRQAPGKERELVAAISRVSSTNYADSVKGRFTISRDNAKNTVYLQMHSLKPEDTAVYYCAADRAGSIMNYWGQGSQVTVSS”, for which the “polyreactivity (PSR sort gate)” value is reported as “low polyreactivity”.
Turning to “QVQLVESGGGLVQAGGSLRLSCAASGSTFDRNVMGWYRQAPGKERELVAAISRVSSTNYADSVKGRFTISRDNAKNTVYLQMNSLKPEDTAVYYCNARRESYYQRYRVDYWGQGTQVTVSS”, the “polyreactivity (PSR sort gate)” value is recorded as “low polyreactivity”.
The entry for “QVQLVESGGGLVQAGGSLRLSCAASGSTFDRYGMGWYRQAPGKERELVAAITWSVGSTYYADSVKGRFTISRDNAKNTVYLQMNSLKPEDTAVYYCNAGVLGVYTSYNGDDYWGQGTQVTVST” is “low polyreactivity”.
With “QVQLVESGGGLVQAGGSLRLSCAASGSTFDRYGMGWYRQAPGKERELVARITSSGASTYYADSVKGRFTISRDNAMNTVYLQMNSQKPEDTAVYYCAADEGYPGDGDYWGQGTQVTVSS” the entry was “low polyreactivity”; with “QVQLVESGGGLVQAGGSLRLSCAASGSTFDSNAMGWYRQAPGKERELVAAIRFSGGSTNYADSVKGRFTISRDNAKNTVYLQMNSLKPEDTAVYYCAARYPNLRRRWYYYWGQGTQVTVSS”, “high polyreactivity”.
Consider “QVQLVESGGGLVQAGGSLRLSCAASGSTFDSNVMGWYRQAHGKERELLAAINYSGVRTYYADSVKGRFTISRDNAKNTVYLQMNSLKPEDTAVYYCNARLFSYRYPEGGYWGQGTQVTVSS”, for which the “polyreactivity (PSR sort gate)” value is recorded as “high polyreactivity”.
The entry for “QVQLVESGGGLVQAGGSLRLSCAASGSTFDSYAMGWYRQAPGKERELVAALSYNGSSTDYADSVKGRFTISRDNAKNTVDEQMNSLKPEDTAVYYCAAAPGFSAGHHDYWGQGTQVTVSS” is “low polyreactivity”; for “QVQLVESGGGLVQAGGSLRLSCAASGSTFDTNAMGWYRQAPGKERELVAAISWSRDRTYYADSVKGRFTISRDNAKNTVYLQMNSLNPEDTAVYYCNAYLSFRRQYGYWGQGTQGTVSS” it is “high polyreactivity”; for “QVQLVESGGGLVQAGGSLRLSCAASGSTFDTNDMGWDRQAPGKERELVAAISSGGDYADSVKGRFTISRDNAKNTVYLQLNSLKPEDTAVYYCAKADTKWGQGTQVTVSS” it is “low polyreactivity”.
As for “QVQLVESGGGLVQAGGSLRLSCAASGSTFDTYAKGWYRQAPGQERELVAAISYRGGNTYYADSVKGRFTISRDNAKNTVYLQMNSLKPEDTAVYYCNAGVSIGRSRRYDYWGQGTHVTVSS”, the “polyreactivity (PSR sort gate)” value is reported as “low polyreactivity”.
With “QVQLVESGGGLVQAGGSLRLSCAASGSTFDTYAMGWYRQAPGKERELVAAINSGGGTNYADSVKGRFTISRDNAKNTVYLQMNSLKPEDTAVYYCATDSRRDAGGGDFDYWGQGTQVTVSS” the entry was “low polyreactivity”; with “QVQLVESGGGLVQAGGSLRLSCAASGSTFDTYAMGWYRQAPGKERELVAAISSGGSTNYADSVKGRFTISRDNAKNTVYLQMNSLKPEDTAVYYCADSYKSVFPVYGTLDEYWGQGTQVTVSS”, “low polyreactivity”; with “QVQLVESGGGLVQAGGSLRLSCAASGSTFDVNAMGWYRQAPGKERELVAAISFSGGSTYYADSVKGRFTISRDNAKNTVYLQMNSLKPEDTAVYYCAAEEWRSYYEEYDYWGQGTQVTVSS”, “low polyreactivity”.
The entry for “QVQLVESGGGLVQAGGSLRLSCAASGSTFDVNAMGWYRQAPGKERELVAAISWNSGSTYYADSVKGRFTISRDNAMITVFLQMNSLKPEDTAVYYCAATYGTGRRSKYGYWGQGSQVTVSS” is “high polyreactivity”.
